Among the data in patent US20170355773A1 are fold increase in ELISA signal and OD450 values, retold here.

Residue numbers refer to the chain shown, from its start.

Sequences and labels used below:
B1: 42G2 (scFv mutant of W3072-z4C12) (scFv, V domains shown, not shown: small tags and cut ends)
VH: EVQLVESGGGLSQPGNSLQLSCEASGFTFSNHDLNWVRQAPGKGLEWVAYISSASGLISYADAVRGRFTISRDNAKNSLFLQMNNLKSEDTAMYYCARDPPYSGLYALDFWGQGTQVTVSS
VL: QPVLTQSPSASASLSGSVKLTCTLSSELSWYTIVWYQQRPDKAPKYVMYLKSDGSHSKGDGIPDRFSGSSSGAHRYLSISNVQSEDDATYFCGAGYTLAGQYGWVFGSGTKVTVL
B2: 27A3 (scFv mutant of W3072-z4C12) (scFv, V domains shown, not shown: small tags and cut ends)
VH: B1 VH with S103T
VL: B1 VL with W30S
B3: 42F9 (scFv mutant of W3072-z4C12) (scFv, V domains shown, not shown: small tags and cut ends)
VH: B1 VH
VL: B1 VL with W30F
B4: 42H8 (scFv mutant of W3072-z4C12) (scFv, V domains shown, not shown: small tags and cut ends)
VH: B1 VH
VL: B1 VL with W30Y
B5: 66B8 (scFv mutant of W3072-z4C12) (scFv, V domains shown, not shown: small tags and cut ends)
VH: B1 VH
VL: B1 VL with W30S, G100N
B6: 43F11 (scFv mutant of W3072-z4C12) (scFv, V domains shown, not shown: small tags and cut ends)
VH: B1 VH
VL: B1 VL with W30S, Y31F

The first assay has as its target TNFRSF25-Fc protein (UniProt Q93038). Nature of the assay: capture ELISA, scFv, against the wild-type.
B1 yielded a fold increase in ELISA signal of more than 10 fold.

For a further assay the target is unchanged. In words: single point capture ELISA: scFv on anti-c-myc, biotinylated antigen, streptavidin-HRP.
For B2, the OD450 came out at 1.61.

As for B1, the OD450 is 3.19.

B3: the OD450 was found to be 2.33.

The molecule B4 yielded an OD450 of 1.67.

For the molecule B5, the OD450 was found to be 0.4.

For the molecule B6, the OD450 is 1.6.
